Reference: patent publication US20090232823A1 (Eli Lilly, published 2009)

Tests used:
[1] = target: recombinant human TYRP1 (tyrosinase-related protein-1) (human) (UniProt P17643); test: SPR (Biacore), TYRP1 immobilized; summary table
[2] = target: recombinant human TYRP1 (tyrosinase-related protein-1) (human) (UniProt P17643); test: SPR (Biacore), TYRP1 immobilized on CM5 chip, antibody injected, 20-25 °C
[3] = target: recombinant human TYRP1 (tyrosinase-related protein-1) (human) (UniProt P17643); test: ELISA, plate coated with recombinant human TYRP1, antibody titrated
[4] = target: recombinant human TYRP1 (tyrosinase-related protein-1) (human) (UniProt P17643); test: ELISA on plate-coated recombinant human TYRP1 (column headed 'Competition ELISA'); summary table
[5] = target: native human TYRP1 expressed on human melanoma cell lines (624mel, SKmel28, SKmel23) (human, UniProt P17643 25-537); test: cell-based or functional assay

Kd [1] [nM] | Kd [2] [nM] | koff [2] [s⁻¹] | kon [2] [M⁻¹ s⁻¹] | EC50 [3] [nM] | EC50 [4] [nM] | Human ADCC (%) [5] [%] | Molecule
1.7 | 1.7 | 0.00016 | 95000 | 0.4 | 0.4 | – | TA99, murine monoclonal antibody (IgG2a) specific for human and murine TYRP1
– | – | – | – | – | – | 48 | CTA99, chimeric antibody with a human constant region IgG1 (antibody, V domains shown) VH: EVQLQQSGAELVRPGALVKLSCKTSGFNIKDYFLHWVRQRPDQGLEWIGWINPDNGNTVYDPKFQGTASLTADTSSNTVYLQLSGLTSEDTAVYFCTRRDYTYEKAALDYWGQGASVIVFS VL: AIQMSQSPASLSASVGETVTITCRASGNIYNYLAWYQQKQGKSPHLLVYDAKTLADGVPSRFSGSGSGTQYSLKISSLQTEDSGNYYCQHFWSLPFTFGSGTKLEIKR
